Laboratory results from the DeepSol protein solubility set.

Assay: soluble on expression in E. coli; label from the status in PepcDB or PDB records

Question: Which “soluble on expression in E. coli” value does the source give for “SNGAGLAADIQLQRDAKTPLALSAKLAEVFFRTGNPLAATLADWPGLLELGNGRATAAAGWKLDAAGGSSLDLDLTLKGLDGIYDRSELKGLGGSLALRLRGGQLSLDSPGLSLAEANPGLPLGPVSFRGRYEAPLSAPGSGRLSWQTLQSGLFGGQASVPAGSIRLGQAEQKFALRIQGIQLGEIFRVYPAEGLAGEGTLDGELPLMLNRWKPSVSGGQVKAREPGYLRFRSAKIEALGRSNPGMKLVADALDDFHYDVLQSSVDYHENGKLLLGLRLQGSNPDLEKGRPVNLNVNLEEDIPALLTSLQLSDRVSETIRQ” here?
Answer: The value was “not soluble”.

Question: With “MSLLTQIKGEWVLGFADGNHRMLRDASVVYEGERIVHVGTEFDGVADRVIDARGCLVAPGFIDTHVHSGHRALHKLLADGGRPDLFGQPYMDVTIARDGTRIKGYPNYLSREEAAVDPGIALHAAFTVAELLRNGVTTFVELGGHVMVQEALWRECERLGVRGYLGAGYDSGRWAADDQGRLRRVPYPDGGDHLFEEAVAFIKRVQAAGNDLVNGILVPREVENCSVDILRRTVQAAQELGVPMATHAGYNVIEFYETVREHRMTPIELLHSVGMLGPRLNIGHANLISDSPRLNYSGGRDLALMGEHRVSISHCPINIVRRARVLDSWKKYREAGVNLTIGSDTYPRDMVMNMRTASYHGKVMSHDLTAASAAEVFEAATLGGARSLGRTDIGRLEPGARADVIAINVGRQDVLRYGPIWDPIRSLVECGVGDDVELVVTNGQVRMEQGRIVGVDLGALRAEAQQFADNVWRDLQDWDPLRRTAQAMCPPLFCPDCMEGHHHHHH” as the sequence, how does the “soluble on expression in E. coli” value read?
Answer: Its value is “soluble”.

Question: For “MGLPAHHIDAFLDRLRTAHYSEVSLRKKRRVLCAFSGWMKHRNIDLIDLDESVTARFMKRMIDASRDRVQRARPTLRQFLAYLRAEAIVCSPTLGSQSAIAHTYRRYLDYLRQDRGLAKNSLLVYGPFIRDFLDSHSAGDGSLLPDAFDAVTIRNHLLARSKGRSAEYTRLMAVALRSFCHFLFLRGDTARDLAGSVPSVRKWRQSTVPTFLTPEQQEALIASADRSTPTGLRDYAILLLLARLGLRAGEIIEIELDDIHWRSGELVVHGKGQMVEHVPLSSEVGAAIATYLRDGRGASASRRVFLRRLAPRVGLAGPAAIGKIVCQAFARVGFRPACRGAAHLFRHGLATTMIRHGASMAEIAEVLRHRSPDSTAIYAKVAFEDLRGVARSWPTAGGAILEHHHHHH”, which “soluble on expression in E. coli” value is on record?
Answer: The value was “soluble”.

Question: For “GPGSMSFYRTKKVIINSLFSDSSWYCTFRFRNPMTSQRRSCHEGIPSGRVTGNSVTLLSEMRENNAIGVEAVGKERKRPDAMTVLSNVFRTNPAALRLHRELTICIASGETERASDLASVLAGLVKRTTRLDDIEQKCAEEGGRSKVPNDPVPVVGEETVEFLTSNVVRGVSSQSRLESIEILHNDAPGAPYLGEKVAEAAEVKDSEPLPFWKNPDALRLTLLESAFEMALADDNENPLQPGSVEADCLEKERMEILDAYLKREGKRWELQKAAVARAIVATVKDLGVVPEDIHAALQAEGELRLNGSDKRFNVLKHCNIIVRGEVPEVMELQMKGTATRNVEASVSQELDVLINRMSSTGTPLSQRDKDLALFELVMSKSKMRYVVGLHRELQVALDTAPALRKLAVEHRAKSGSVLFVERALKMLNKVAPDGSETTAEDVECIDTISTPVLPFTFMLKMCLWFEAPVAM”, which “soluble on expression in E. coli” value is on record?
Answer: Its value is “not soluble”.

Question: Which “soluble on expression in E. coli” value does the source give for “SNAMLFDEKEILAITRWAKLYANQSPDRILLGSNDIPPEYRAAVATQIELWPRLRNKLPQWAGISSLYIPSRLSLEQSSGAVTSSYKSRFIREGTKVVDLTGGLGIDFIALMSKASQGIYIERNDETAVAARHNIPLLLNEGKDVNILTGDFKEYLPLIKTFHPDYIYVDPARRSGADKRVYAIADCEPDLIPLATELLPFCSSILAKLSPMIDLWDTLQSLLHVQELHVVAAHGEVKELLVRMSLNEATIPPEKVPIHAINLLLEDTVIPFIFTMEEERSISIPYTDSIDKYVYEPHTALLKAGAFKTVAYRLGLRKLHPNSHLYTSEAYESAFPGRTFVLEEIIPFSTSVLKQLRKVVPQASISCRNFPLSPIELRQRSKMADGGEKTLMGTTMADGKKVLLLLRKAE” here?
Answer: The value was “soluble”.

Question: With “MKQAIVYWKTLKAGILTESDEGYSFAYDKDYLTMPEAQGISLTMPLREEPFQSNMLHPFFDGLIPEGWLLDIAQKNWKIDSRDRMALLLACCRDCIGAVSIEPLNTTEDDE” as the sequence, how does the “soluble on expression in E. coli” value read?
Answer: Its value is “not soluble”.

Question: Which “soluble on expression in E. coli” value does the source give for “MGSDKIHHHHHHMRITIVTIFPEMVEVIKKYGVIARAVERGIVEINVENLRDYTTDRHRTVDDYQYGGGYGMVMKPEPFFRFYESYVEKYGKPYVILTSPQGRIFNYKIAEELSKKDDIVIFCGRYEGIDERVMSIVDDEISIGDYILTGGELPAMVITDAVVRLVPGVVERESVERESFHQGLLDHPVYTRPYEYKGMKVPDVLLSGDHEKVELWRRKESIKKTLAKRPDLFLAKELDEMDKLAIIELFRELMEKC” here?
Answer: Its value is “not soluble”.

Question: Which “soluble on expression in E. coli” value does the source give for “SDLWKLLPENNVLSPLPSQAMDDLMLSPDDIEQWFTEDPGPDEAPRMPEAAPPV” here?
Answer: The value was “soluble”.

Question: With “GDAFCNPQATMDFLRFKLHQHQREVFAVMMLDSQHRLIEFNEMFFGTIDSASVYPREVVKAVLLCNAAAVIFAHNHPSGCAEPSSADRRITERLIAALATIDVPVLDHIVVADTCVSFAERGLL” as the sequence, how does the “soluble on expression in E. coli” value read?
Answer: The value was “not soluble”.

Question: Which “soluble on expression in E. coli” value does the source give for “SASLDRVKVLVLGDSGVGKSSLVHLLCQNQVLGNPSWTVGCSVDVRVHDYKEGTPEEKTCYIELWDVGGSVGSASSVKSTRAVFYNSVNGIIFVHDLTNKKSSQNLRRWSLEALNRDLVPTGVLVTNGDYDQEQFADNQIPLLVIGTKLDQIHETKRHEVLTTTAFLAEDFNPEEINLDCTNPRYLAAGSSNAVKLSRFFDKVIEKRYFLREGNQIPGFPDRKRFGAGTLKSLHYD” here?
Answer: Its value is “soluble”.

Question: Which “soluble on expression in E. coli” value does the source give for “AENAKIKFDGVDVERDSNVINDLVPNVTLSLKKPSSDMVEAKIEPDYEGIKRVLLDFIGAYNEVLAEINIVSSNEDQPNNQKSNIVEELTYLSDSQKEEAYKNLGILRSEFLLKNLKSKLESIIFKPYVTSDPNFSIINQMGVFTNSISSSGGLSRYLRLDEKKFDESIRNNIDNVRELFLYDLNGDRVYDNGIAKMLGDCLSPLVASGGVIYNKIKNYDLKIFNQKNKVEDYKKKYEDRERKVEGELNTLDFTVKRMKD” here?
Answer: The value was “not soluble”.

Question: Which “soluble on expression in E. coli” value does the source give for “ALCAICGDRATGKHYGASSCDGCKGFFRRSVRKNHMYSCRFSRQCVVDKDKRNQCRYCRLKKCFRAGMKKEAVQNERD” here?
Answer: Its value is “soluble”.

Question: With “MSSRPPFGIVKPSKPTGNPSSGSSDLDSTAEPSPHERRMDSQRASSGSDVHGHPSLGSQSHNLTSAQSEGRNAHKDLHERHVHPSQGYQRHGSKAPAHGHPSSQGARRSQHELSNFPKLLANLMQDTKATASASCASNQDTLQPTASTMSDGEPEEDKVKLCGNRLEVGVTDNLAGTQRRKEQQQLQGAQAKNDIIYTLSTDNSILDIDHQPKREIAFTHSLLNISKIVNRMIPIRCSMFPGKSWKDPNNLKRPSIAKVHRTNHANELRTARFKANEKCYLLSVCQLISLKNPTFQGLSDSLNSPGDKKVAAEKHTCEDRTRRPTFPLDAFCSTPNEQYETMLLIAKSRTLSARMNVKMLHFPLGLLALEFDGIDSDMPNPDFHDNVLGYRDPHTTTPDSSSDHAAANLPPGRTRDYIPRKAKAPYINYVHSLSVMVEPLPSPPECCHLGSAEPVRPNFADIGAWSGSPTNPQSPSA” as the sequence, how does the “soluble on expression in E. coli” value read?
Answer: The value was “not soluble”.

Question: For “MVGTFLGTGASSGVPMLNCSCKVCTSSYSKNKRLRSSFFLESSSGIKLLIDTGPDIRQQLLREKIDRLDLVLYTHEHYDHIMGFDDIKFYTRCAPLNIYARDTAMAHIRNAFPYNFTSKPSLSGKADIIANVIRDFEPFFFKSLKIVPIPLIHGDIISLGYRVGNLAYLTDVKFIPEASYDYLKNLDLLIIDAMRIKPHPAHLNFSEAFCVIKKINPKISYFTHIAHDIMHEEFDYLEKDNIYLAYDGLKIYILEHHHHHH”, which “soluble on expression in E. coli” value is on record?
Answer: The value was “not soluble”.

Question: Which “soluble on expression in E. coli” value does the source give for “MGHHHHHHSHMYFVGCGYNAFPVGSEYADFPHMDDKQKDREIRKFRYIIHAEQNALTFRCQEIKPEERSMIFVTKCPCDECVPLIKGAGIKQIYAGDVDVGKKKADISYMRFGELEGVSKFTWQLNPSGAYGLEQNEPERRERDLSHRRKSSTRTRSCASESTKKACLHCRGTSRTFHCTSKIQPCSFRK” here?
Answer: Its value is “not soluble”.

Question: For “MDPDNRVRQRAVKTLGKRGNPDVLEDLMEALKDSRQPVQEAASEALRKIIAASDSVPVLVKALDATDRNVRKAAIEALWKAGTPEAIPPLLRELDDADWYLRSRAADALADIASPEAALGLIKVMDIHDSPVKKIIVNALGKIGTVEAVEGLVKALEDLEHHHHHH”, which “soluble on expression in E. coli” value is on record?
Answer: Its value is “soluble”.

Question: For “SNAMEKYILSIDQGTTSSRAILFNQKGEIAGVAQREFKQYFPQSGWVEHDANEIWTSVLAVMTEVINENDVRADQIAGIGITNQRETTVVWDKHTGRPIYHAIVWQSRQTQSICSELKQQGYEQTFRDKTGLLLDPYFAGTKVKWILDNVEGAREKAENGDLLFGTIDTWLVWKLSGKAAHITDYSNASRTLMFNIHDLEWDDELLELLTVPKNMLPEVKASSEVYGKTIDYHFYGQEVPIAGVAGDQQAALFGQACFERGDVKNTYGTGGFMLMNTGDKAVKSESGLLTTIAYGIDGKVNYALEGSIFVSGSAIQWLRDGLRMINSAPQSESYATRVDSTEGVYVVPAFVGLGTPYWDSEARGAIFGLTRGTEKEHFIRATLESLCYQTRDVMEAMSKDSGIDVQSLRVDGGAVKNNFIMQFQADIVNTSVERPEIQETTALGAAFLAGLAVGFWESKDDIAKNWKLEEKFDPKMDEGEREKLYRGWKKAVEATQVFKTE”, which “soluble on expression in E. coli” value is on record?
Answer: The value was “soluble”.

Question: With “MYDSAPSDPVPFARLRFRDLQLLREIAAARSLTAVAERRGLTQPALSRTLRDIEAELGAQVFSRERGARLAPTAVGRHILARVDLLMADAGALHSELRAFEEGRGAHLRLGVIPFVSNALMQEVLKTLTGEPLRMSVSTFEGATDQLVLALRRQELDIVIGRLSADAGADTLAQEGLFSQTASIVMSEALYERRASLTLASLHGHPWVLPPASSPTRMAFVEAFVSRNAVAPVARIETTSARLVHSAISSNMASLGLLPLDIGQELERWGGVRCKAFPVPFRMPTVGLIVLAERRARAMNRVVRDVLHRCIARVAAYA” as the sequence, how does the “soluble on expression in E. coli” value read?
Answer: Its value is “not soluble”.

Question: With “RAETAVQRTEDRYHNLVDTAPIPILLFDRDWKALYANEAAIAFLDADSFTEIAGKKASDFLHPDERDAARKRFQRLMREGVSVPEREYRVMTAEGEVKTATIATAPGYYRGEQVAQAMVYR” as the sequence, how does the “soluble on expression in E. coli” value read?
Answer: The value was “soluble”.

Question: Which “soluble on expression in E. coli” value does the source give for “AIARNDLFNREKSRQLSLTPRTEKIEVKHVGKTDPGTVFVMNKNISTPYSCAMHLSEWYCSKSILALVDGQPWDMYKPLTKSCEIKFLTFKDPDPREVNKAYWRSCAMMLGCVIERAFKDDYVVSLLRAPEVPVIAGAFCYDVTLDKRLDEWMPTKENLRSFTKDAHALIYRDLPFETLDVDARVALEIFQHNKYKVDFIEEKASQNPERIVKLHRIGDFIDVSEGPLIPRTSVCFQYEVSAVHNLNPSQPNLIRRFQGLSLPTHLRAQFTIWDKLVGRSRKMVTEDEVRQTENTESTQ” here?
Answer: The value was “not soluble”.

Question: For “MDNLLAQKKPINILLLGTDTGAMGRSWKGRTDTIMMMAINPKTNSTSIVSIPRDSNAIFPDFPQYGVTKINSAYTLGGVGETVKTLDKYYSVPIDGYIMINMGGLKKAIDQVGGIDVTSPLTFDNMGYHFQEGKTYHMDGKKALAFAQLRHGDPRQDYGRQDRDRRVVMALLKKSISPTTLLNTKFLNSISSEMQTDLTMNQMYKIGMDYRHATDNLSQDHAQGVSKQTQNPKFGTMEIEVVSRQERQRVSDKLRAALGLPKVRVAANSASYVMNQLEHHHHHH”, which “soluble on expression in E. coli” value is on record?
Answer: Its value is “soluble”.

Question: Which “soluble on expression in E. coli” value does the source give for “MLTGLKIAVIGGDARQLEIIRKLTEQQADIYLVGFDQLDHGFTGAVKCNIDEIPFQQIDSIILPVSATTGEGVVSTVFSNEEVVLKQDHLDRTPAHCVIFSGISNAYLENIAAQAKRKLVKLFERDDIAIYNSIPTVEGTIMLAIQHTDYTIHGSQVAVLGLGRTGMTIARTFAALGANVKVGARSSAHLARITEMGLVPFHTDELKEHVKDIDICINTIPSMILNQTVLSSMTPKTLILDLASRPGGTDFKYAEKQGIKALLAPGLPGIVAPKTAGQILANVLSKLLAEIQAEEGK” here?
Answer: Its value is “soluble”.
